Experimental data from patent publication US20040170622A1, “Methods and compositions for modulating XBP-1 activity” (President and Fellows of Harvard College, priority 2002, published 2004).

Columns and labels:
[1] = tested on: BCL-1 cells; test: IgM secretion by retrovirally transduced BCL-1 cells (ELISA); type: cell-based
Protocol: Mouse splenocytes or purified B cells (purified mature B cells were isolated from spleen and lymph nodes by magnetic CD43 depletion or B220 magnetic bead selection, Miltenyi Biotech, Auburn Calif.) were plated at 1×10^6 cells/ml in complete media containing RPMI 1640 supplemented with 10% fetal calf serum (FBS)(Hyclone Laboratories), glutamine (2 mM), penicillin (50 units/ml), streptomycin (50 μg/ml), Hepes (100 mM), nonessential amino acids (1×) sodium pyruvate (1 mM) and β-ME (50 μM) and stimulated with anti-CD40(1 μg/ml)(Pharmigen) or LPS (20 μg/ml)(Sigma). Cytokines (R&D Systems, Minneapolis, Minn.) were used at IL-4 (20 ng/ml), IL-2 (20 ng/ml), Il-5 (20 ng/ml), IL-6 (20 ng/ml ), IL-10 (20 ng/ml ) and IL-13 (20 ng/ml). Stimulated B cells were split to a cell concentration of 1×10^6 cells/ml with fresh media every 24 h. The BCL1 (CWS13.20-3B3 ATCC CRL 1699) cell line was cultured in RPMI media supplemented with 10% FBS, gentamicin (20 μg/ml), and β-ME (50 μM). To induce differentiation cells were plated at 2×10^5 cells/ml and treated with recombinant mouse IL-2 and IL-5 (20 ng/ml) (R&D systems).
(§1) Assays to measure immunoglobulin or cytokine levels in culture supernatants were performed as described (e.g., Hodge et al., 1996 Immunity. 4:397-405 or Science. 1996 274:1903-5).
The XBP-1 cDNAs for the unspliced (XBP-1u/s) and the spliced (XBP-1s) forms were PCR-amplified from the total RNA of untreated and tunicamycin treated NIH3T3 cells, respectively, with a primer set (5′-[…]-3′ (SEQ ID NO: 7) and 5′-[…]-3′) (SEQ ID NO: 8). XBP-1u form was generated by a PCR-based mutagenesis from XBP-unspliced/s cDNA so that the two G residues at position 532 and 535 were changed to A without changing amino acid sequences in the XBP-1u open reading frame. Numbers are based on the sequences from gene bank database (NM_013842 [gi:13775155]). These XBP-1 cDNAs were inserted into the GFP-RV retroviral vector by using blunt end ligation (Sambrook et al., 1989). EFFECTENE transfection (Quiagen) was used to introduce the DNA into the Phoenix cell line as described by manufacturer (e.g., Reimold et al., 2001 Nature. 412:300-7 or Int Immunol. 2001 13:241-8). Viral supernatants were harvested after 48 hours and frozen at −80° C. for later use. B cells were purified from mouse spleens using CD43 depletion or positive selection with B220+ magnetic beads as described by the manufacturer (MidiMacs, Miltenyi Biotech). B cell purity was generally near 95% as confirmed by flow cytometry. The B cells (10^6 cells /ml) were then activated in culture with LPS 10 μg/ml and F (ab′)2 anti-IgM (5 μg/ml Southern Biotechnology Associates Inc.) for 24 hours. […]

[2] = tested on: XBP-1^−/− B cells; test: Ig production by retrovirally transduced XBP-1-/- primary B cells (ELISA); type: cell-based, mouse; conditions: LPS 10 μg/ml 72 h
Protocol: as §1
The XBP-1 cDNAs for the unspliced (XBP-1u/s) and the spliced (XBP-1s) forms were PCR-amplified from the total RNA of untreated and tunicamycin treated NIH3T3 cells, respectively, with a primer set (5′-[…]-3′ (SEQ ID NO: 7) and 5′-[…]-3′) (SEQ ID NO: 8). XBP-1u form was generated by a PCR-based mutagenesis from XBP-unspliced/s cDNA so that the two G residues at position 532 and 535 were changed to A without changing amino acid sequences in the XBP-1u open reading frame. Numbers are based on the sequences from gene bank database (NM_013842 [gi:13775155]). These XBP-1 cDNAs were inserted into the GFP-RV retroviral vector by using blunt end ligation (Sambrook et al., 1989). EFFECTENE transfection (Quiagen) was used to introduce the DNA into the Phoenix cell line as described by manufacturer (e.g., Reimold et al., 2001 Nature. 412:300-7 or Int Immunol. 2001 13:241-8). Viral supernatants were harvested after 48 hours and frozen at −80° C. for later use. B cells were purified from mouse spleens using CD43 depletion or positive selection with B220+ magnetic beads as described by the manufacturer (MidiMacs, Miltenyi Biotech). B cell purity was generally near 95% as confirmed by flow cytometry. The B cells (10^6 cells /ml) were then activated in culture with LPS 10 μg/ml and F (ab′)2 anti-IgM (5 μg/ml Southern Biotechnology Associates Inc.) for 24 hours. The 1 ml of activated B cells (10^6 cells/ml) were mixed with 4 μg of polybrene and 1 ml of virus-containing supernatant and spun at 1000 g for 45 minutes at 24° C. Cells were incubated for 24-36 h at 37° C. and then GFP+ cells were flow sorted and returned to culture with and without stimulation.
The effects of these three different forms of XBP-1 on Ig secretion were compared in wild type and XBP-1^−/− B cells. In vitro activated splenic B cells were transduced using retroviruses expressing bicistronic mRNA encoding XBP-1u/s, XBP-1s, XBP-1u or control GFP. In FIGS. 5(A) and (B) purified B cells from wt and XBP-1^−/− mice were activated in culture with LPS 10 μg/ml and F (ab′)2 anti-IgM (5 μg/ml) for 24 hours. Retroviral transduction with GFP alone (GFP-Rv), XBP-1u/s (XBP-1u/s GFP Rv), XBP-1s (XBP-1s GFP Rv) or XBP-1u (XBP-1u GFP Rv) of activated B cells was performed. Cells were incubated for 24-36 h at 37° C. and then GFP+ cells were flow sorted and then returned to culture with LPS stimulation (10 μg/ml) for 72 h. IgM panel(A) and IgG2b panel (B) production analyzed by ELISA from culture supernatants of stimulated B cells. Experiments were done at least three times and standard deviation is shown.

B1: XBP-1s: vector encoding only the spliced form of murine XBP-1, a protein of 371 aa (protein)
chain: MVVVAAAPSAATAAPKVLLLSGQPASGGRALPLMVPGPRAAGSEASGTPQARKRQRLTHLSPEEKALRRKLKNRVAAQTARDRKKARMSELEQQVVDLEEENHKLQLENQLLREKTHGLVVENQELRTRLGMDTLDPDEVPEVEAKGSGVRLVAGSAESAAGAGPVVTSPEHLPMDSDTVASSDSESDILLGILDKLDPVMFFKCPSPESASLEELPEVYPEGPSSLPASLSLSVGTSSAKLEAINELIRFDHVYTKPLVLEIPSETESQTNVVVKIEEAPLSSSEEDHPEFIVSVKKEPLEDDFIPELGISNLLSSSHCLRPPSCLLDAHSDCGYEGSPSPFSDMSSPLGTDHSWEDTFANELFPQLISV
[1]; GFP positive BCL-1 cells treated with IL-2 and IL-5 for 3 days
  IgM secretion compared to vector alone controls: approximately fourfold
[1]; GFP positive BCL-1 cells untreated with cytokine
  Ig secretion: neither XBP-1u/s nor XBP-1s forms were able to induce Ig secretion
[2]
  secretion of IgM compared to control cells: approximately ten-fold
